1 substance from US20250288697A1 can be followed below.

Where two headings read alike, the source gives them in different places.

The target in assay [1] is recombinant mouse TNFα (mouse) (UniProt P06804).
For assay [2] the target is unchanged. The source holds these as a separate data set.

Sequence of UniProt P06804 (P06804 80-235 limits assumed): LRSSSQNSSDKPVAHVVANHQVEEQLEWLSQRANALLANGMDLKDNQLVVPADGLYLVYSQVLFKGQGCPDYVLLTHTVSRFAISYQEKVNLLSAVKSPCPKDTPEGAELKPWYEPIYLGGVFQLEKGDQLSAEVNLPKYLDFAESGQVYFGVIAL

Take “TNFR2-Fc (etanercept), vectorized (Fc fusion)”: the IC50 (read off the curve); HEK-Blue TNFα reporter (SEAP), % TNFα activity was found to be 0.9 µg/mL in assay [1] and 0.5 µg/mL in assay [2].
